Experiments:
[1] = target: FcRn (UniProt P55899); experiment: BLI (Octet), steady state
[2] = target: FCγRI (CD64) (UniProt P12314); experiment: BLI (Octet), antibody on FAB2G tips, kinetic fit
[3] = target: FCγRIIa (CD32a)_H131 (UniProt P12318); experiment: BLI (Octet), steady state
Chain of FCγRIIa (CD32a)_H131 (P12318 36-218 limits assumed): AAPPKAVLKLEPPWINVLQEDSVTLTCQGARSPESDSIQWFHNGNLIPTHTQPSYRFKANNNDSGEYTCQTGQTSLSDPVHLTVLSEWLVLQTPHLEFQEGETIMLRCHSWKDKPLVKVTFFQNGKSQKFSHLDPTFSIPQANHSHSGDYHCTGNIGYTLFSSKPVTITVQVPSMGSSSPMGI

Kd [1]	Kd [2]	Kd [3]	Substance
825 nM	–	–	hu14.18 IgG2h (FN-AQ, K322A)-delK (antibody)
620 nM	1.8 nM	670 nM	hu14.18-huIgG1-delK (antibody)
